Assay results from patent US20100203630A1.

Target: envelope of the SF162 strain of pseudovirus (HIV, SF162) (UniProt P19550)
Test: cell-based or functional assay

Substance: purified b12-IgG1 (antibody)
- neutralizing 50% inhibitory concentration (IC50), pseudovirus neutralization assay: 0.026 µg/mL
